Measurements taken from patent US20250197820A1, “NUCLEIC ACID POLYMERASE AND ITS USE IN PRODUCING NON-DNA NUCLEOTIDE POLYMERS” (UNITED KINGDOM RESEARCH AND INNOVATION, priority 2021, published 2025).

Key:
Format in all cases: biochemical
2M = molecular target: T1, 2M (Thermococcus gorgonarius, UniProt P56689, A485L/D141A/E143A/E664K/F545L/I521L/K592A/T541G/V93Q/Y409G); assay: Steady-state kinetics of single nucleotide incorporation by 2M; conditions: single nucleotide incorporation from 2′OMe-RNA primer; for improvement of KM value compared to ATP: 50° C.
T1 construct: made in house; host or cells: E. coli BL21 CodonPlus-RIL
Procedure: Steady-state kinetic parameters for NTP incorporation by 2M were determined by performing initial velocity measurements of single incorporations of either ATP, 2′OMe-ATP, or MOE-ATP. To generate the 2′OMe-RNA/DNA substrate, a 20-mer 2′OMe-RNA primer FD was 5′ 6-carboxyfluorescein end-labeled and annealed to the 52-mer DNA template BFL770 (Supplementary Table 1) at a 1:1.2 molar ratio. The reactions were performed at 50° C. in a mixture containing 1× Thermopol buffer, 6 mM Mg^2+, 100 nM 2′OMe-RNA/DNA substrate, and at NTP concentrations ranging from 0.5-250 μM. Enzyme concentrations and reaction times were selected to maintain initial velocity conditions. The 25 μL reactions were stopped by addition of a quenching solution containing 100 mM EDTA, 80% deionized formamide, 0.25 mg/ml bromophenol blue and 0.25 mg/ml xylene cyanol. Moreover, less than 20% of the primers were extended as required for steady-state conditions.
Product and substrate were separated on a 22% denaturing (8 M urea) polyacrylamide gel. The resulting bands were quantified using a Cytiva Typhoon RGB imager in fluorescence mode. Steady-state kinetic parameters (KM, kcat) were determined by fitting the data to the Michaelis-Menten equation. The data are the means and standard error from three independent experiments.

template TempNpure = assay: Primer extension on defined-sequence template (denaturing PAGE)
Procedure: (§1) Analytical primer extension reactions were carried out in 1× Thermopol buffer (NEB) supplemented with MgSO4 (4 mM). Primer (100 nM) was extended on a template (200 nM) with appropriate nucleoside triphosphates (125-250 μM each) by purified polymerase (10-100 μg/mL) in a 10-μL reaction volume. Reactions were carried out at 65° C. Primer extension products were analysed via urea-PAGE. All extensions with MOE-NTPs on defined-sequence template TempNpure required post-synthesis template capture with a ten-fold excess of antisense template, Turbo DNase (Invitrogen) treatment, subsequent Proteinase K (NEB) treatment, and loading on the urea-PAGE gel with a ten-fold excess of antisense template. Primer extensions with MOE-NTPs on template sfGFP required polymerase concentrations of 500 μg/mL.

[1] = test system: random N40 template Tag3.3-N40-Test2; assay: Primer extension on random N40 template (denaturing PAGE, densitometry)
Procedure: as §1

template sfGFP = assay: Long-range synthesis of a GFP transcript; conditions: 2′OMe-RNA primer Synth-out1mm
Procedure: as §1

[2] = FIG. 1g, RNA/2′OMe-RNA primer A-Test2, full length +79 nt
[3] = FIG. 3e, 2′OMe-RNA primer A-Test2, full length +79 nt

Molecule	Vmax/kcat values for incorporation (2M)	improvement of KM value compared to ATP (2M)	2′OMe-RNA synthesis activity (in words) (template TempNpure; denaturing PAGE)	densitometry of N40 synthesis yield, 2′OMe-RNA [1, 2] [%]	densitometry of N40 synthesis yield, 2′OMe-RNA [1, 3] [%]	densitometry of N40 synthesis yield, MOE-RNA [1, 3] [%]	further results
CO[C@@H]1[C@H](O)[C@@H](COP(=O)(O)OP(=O)(O)OP(=O)(O)O)O[C@H]1n1cnc2c(N)ncnc21 [2′OMe-ATP]	essentially identical	approximately 5 fold					
COCCOC1C(O)C(COP(=O)(O)OP(=O)(O)OP(=O)(O)O)OC1n1cnc2c(N)ncnc21 (stereo not shown) [MOE-ATP]	essentially identical	approximately 5 fold					
TGLLK: Tgo: V93Q, D141A, E143A, Y409G, A485L, I521L, F545L, E664K; previously described parent polymerase (protein, UniProt P56689 1-773, looked up, variant V93Q D141A E143A Y409G A485L I521L F545L E664K) DNA polymerase: MILDTDYITEDGKPVIRIFKKENGEFKIDYDRNFEPYIYALLKDDSAIEDVKKITAERHGTTVRVVRAEKVKKKFLGRPIEVWKLYFTHPQDQPAIRDKIKEHPAVVDIYEYDIPFAKRYLIDKGLIPMEGDEELKMLAFAIATLYHEGEEFAEGPILMISYADEEGARVITWKNIDLPYVDVVSTEKEMIKRFLKVVKEKDPDVLITYNGDNFDFAYLKKRSEKLGVKFILGREGSEPKIQRMGDRFAVEVKGRIHFDLYPVIRRTINLPTYTLEAVYEAIFGQPKEKVYAEEIAQAWETGEGLERVARYSMEDAKVTYELGKEFFPMEAQLSRLVGQSLWDVSRSSTGNLVEWFLLRKAYERNELAPNKPDERELARRRESYAGGYVKEPERGLWENIVYLDFRSLGPSIIITHNVSPDTLNREGCEEYDVAPQVGHKFCKDFPGFIPSLLGDLLEERQKVKKKMKATIDPIEKKLLDYRQRLIKILANSFYGYYGYAKARWYCKECAESVTAWGRQYLETTIREIEEKFGFKVLYADTDGFLATIPGADAETVKKKAKEFLDYINAKLPGLLELEYEGFYKRGFFVTKKKYAVIDEEDKITTRGLEIVRRDWSEIAKETQARVLEAILKHGDVEEAVRIVKEVTEKLSKYEVPPEKLVIYKQITRDLKDYKATGPHVAVAKRLAARGIKIRPGTVISYIVLKGSGRIGDRAIPFDEFDPAKHKYDAEYYIENQVLPAVERILRAFGYRKEDLRYQKTRQVGLGAWLKPKT			comparatively inefficient	0	1	0	
2M: Tgo polymerase with V93Q, D141A, E143A, Y409G, A485L, I521L, T541G, F545L, K592A, E664K (SEQ ID NO: 3) (protein) MILDTDYITEDGKPVIRIFKKENGEFKIDYDRNFEPYIYALLKDDSAIEDVKKITAERHGTTVRVVRAEKVKKKFLGRPIEVWKLYFTHPQDQPAIRDKIKEHPAVVDIYEYDIPFAKRYLIDKGLIPMEGDEELKMLAFAIATLYHEGEEFAEGPILMISYADEEGARVITWKNIDLPYVDVVSTEKEMIKRFLKVVKEKDPDVLITYNGDNFDFAYLKKRSEKLGVKFILGREGSEPKIQRMGDRFAVEVKGRIHFDLYPVIRRTINLPTYTLEAVYEAIFGQPKEKVYAEEIAQAWETGEGLERVARYSMEDAKVTYELGKEFFPMEAQLSRLVGQSLWDVSRSSTGNLVEWFLLRKAYERNELAPNKPDERELARRRESYAGGYVKEPERGLWENIVYLDFRSLGPSIIITHNVSPDTLNREGCEEYDVAPQVGHKFCKDFPGFIPSLLGDLLEERQKVKKKMKATIDPIEKKLLDYRQRLIKILANSFYGYYGYAKARWYCKECAESVTAWGRQYLETTIREIEEKFGFKVLYADGDGFLATIPGADAETVKKKAKEFLDYINAKLPGLLELEYEGFYKRGFFVTKAKYAVIDEEDKITTRGLEIVRRDWSEIAKETQARVLEAILKHGDVEEAVRIVKEVTEKLSKYEVPPEKLVIYKQITRDLKDYKATGPHVAVAKRLAARGIKIRPGTVISYIVLKGSGRIGDRAIPFDEFDPAKHKYDAEYYIENQVLPAVERILRAFGYRKEDLRYQKTRQVGLGAWLKPKT			striking increase in 2′OMe-RNA synthesis activity	90	84	65	time to reach full length synthesis (+72 nt), 2′OMe-RNA (template TempNpure; 2′OMe-RNA primer FD): < 5 min; time to reach full length synthesis (+72 nt), MOE-RNA (template TempNpure; 2′OMe-RNA primer FD): < 20 min; MOE-RNA synthesis (in words) (template TempNpure; denaturing PAGE): able to efficiently synthesize MOE-RNA; time to reach full length synthesis (+79 nt), 2′OMe-RNA ([1]; 2′OMe-RNA primer FD-Test2): < 10 min; time to reach full length synthesis (+79 nt), DNA ([1]; 2′OMe-RNA primer FD-Test2): < 1 min; time to reach full length synthesis (+79 nt), MOE-RNA ([1]; 2′OMe-RNA primer FD-Test2): < 30 min; long-range 2′OMe-RNA synthesis length (template sfGFP): 750 nt; long-range MOE-RNA synthesis length (template sfGFP): 750 nt
2M+D614N: 2M polymerase bearing the DGLNK mutation D614N (SEQ ID NO: 5) (protein) MILDTDYITEDGKPVIRIFKKENGEFKIDYDRNFEPYIYALLKDDSAIEDVKKITAERHGTTVRVVRAEKVKKKFLGRPIEVWKLYFTHPQDQPAIRDKIKEHPAVVDIYEYDIPFAKRYLIDKGLIPMEGDEELKMLAFAIATLYHEGEEFAEGPILMISYADEEGARVITWKNIDLPYVDVVSTEKEMIKRFLKVVKEKDPDVLITYNGDNFDFAYLKKRSEKLGVKFILGREGSEPKIQRMGDRFAVEVKGRIHFDLYPVIRRTINLPTYTLEAVYEAIFGQPKEKVYAEEIAQAWETGEGLERVARYSMEDAKVTYELGKEFFPMEAQLSRLVGQSLWDVSRSSTGNLVEWFLLRKAYERNELAPNKPDERELARRRESYAGGYVKEPERGLWENIVYLDFRSLGPSIIITHNVSPDTLNREGCEEYDVAPQVGHKFCKDFPGFIPSLLGDLLEERQKVKKKMKATIDPIEKKLLDYRQRLIKILANSFYGYYGYAKARWYCKECAESVTAWGRQYLETTIREIEEKFGFKVLYADGDGFLATIPGADAETVKKKAKEFLDYINAKLPGLLELEYEGFYKRGFFVTKAKYAVIDEEDKITTRGLEIVRRNWSEIAKETQARVLEAILKHGDVEEAVRIVKEVTEKLSKYEVPPEKLVIYKQITRDLKDYKATGPHVAVAKRLAARGIKIRPGTVISYIVLKGSGRIGDRAIPFDEFDPAKHKYDAEYYIENQVLPAVERILRAFGYRKEDLRYQKTRQVGLGAWLKPKT			small enhancement				
3M: Tgo polymerase as 2M but with E664R (SEQ ID NO: 4) (protein) MILDTDYITEDGKPVIRIFKKENGEFKIDYDRNFEPYIYALLKDDSAIEDVKKITAERHGTTVRVVRAEKVKKKFLGRPIEVWKLYFTHPQDQPAIRDKIKEHPAVVDIYEYDIPFAKRYLIDKGLIPMEGDEELKMLAFAIATLYHEGEEFAEGPILMISYADEEGARVITWKNIDLPYVDVVSTEKEMIKRFLKVVKEKDPDVLITYNGDNFDFAYLKKRSEKLGVKFILGREGSEPKIQRMGDRFAVEVKGRIHFDLYPVIRRTINLPTYTLEAVYEAIFGQPKEKVYAEEIAQAWETGEGLERVARYSMEDAKVTYELGKEFFPMEAQLSRLVGQSLWDVSRSSTGNLVEWFLLRKAYERNELAPNKPDERELARRRESYAGGYVKEPERGLWENIVYLDFRSLGPSIIITHNVSPDTLNREGCEEYDVAPQVGHKFCKDFPGFIPSLLGDLLEERQKVKKKMKATIDPIEKKLLDYRQRLIKILANSFYGYYGYAKARWYCKECAESVTAWGRQYLETTIREIEEKFGFKVLYADGDGFLATIPGADAETVKKKAKEFLDYINAKLPGLLELEYEGFYKRGFFVTKAKYAVIDEEDKITTRGLEIVRRDWSEIAKETQARVLEAILKHGDVEEAVRIVKEVTEKLSKYEVPPEKLVIYRQITRDLKDYKATGPHVAVAKRLAARGIKIRPGTVISYIVLKGSGRIGDRAIPFDEFDPAKHKYDAEYYIENQVLPAVERILRAFGYRKEDLRYQKTRQVGLGAWLKPKT			virtually identical synthesis activity				
